In IntAct's records for PubMed 22363216:

target: arfg1_rat Arfgap1 (UniProt Q62848)
Sequence (Q62848 whole entry): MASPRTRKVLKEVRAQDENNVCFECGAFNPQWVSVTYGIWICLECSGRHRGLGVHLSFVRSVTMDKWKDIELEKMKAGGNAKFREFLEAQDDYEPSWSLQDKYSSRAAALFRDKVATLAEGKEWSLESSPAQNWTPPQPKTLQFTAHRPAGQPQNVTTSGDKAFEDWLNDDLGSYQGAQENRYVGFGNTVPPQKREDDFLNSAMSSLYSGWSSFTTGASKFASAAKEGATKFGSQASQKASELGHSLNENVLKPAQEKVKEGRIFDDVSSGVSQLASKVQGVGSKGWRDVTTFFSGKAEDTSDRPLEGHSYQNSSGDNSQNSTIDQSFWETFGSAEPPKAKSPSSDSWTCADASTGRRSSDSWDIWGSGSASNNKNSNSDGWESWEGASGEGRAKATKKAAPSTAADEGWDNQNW

Substance	effect of a mutation on the interaction
Leucine-rich repeat serine/threonine-protein kinase 2 (Homo sapiens), Q5S007 G2019S	increasing interaction
Leucine-rich repeat serine/threonine-protein kinase 2 (Homo sapiens), Q5S007 R1441C	increasing interaction
Leucine-rich repeat serine/threonine-protein kinase 2 (Homo sapiens), Q5S007 R1398L	decreasing interaction
Leucine-rich repeat serine/threonine-protein kinase 2 (Homo sapiens), Q5S007 T1348N	decreasing interaction
Leucine-rich repeat serine/threonine-protein kinase 2 (Homo sapiens), Q5S007 Y1699C	increasing interaction
